Data reported in US7850981B2, “Immuno-adjuvant PDT treatment of metastatic tumors” (QLT, Inc., priority 1999, dated 2010).
Where two headings read alike, the source gives them in different places.

Columns and labels:
[1] = tested on: DC; conditions: after multiple injections, cited from earlier work
[2] = tested on: DC; assay: Preliminary experiments: daily injection of FLT3 L into mice, numbers of DC; type: in vivo; conditions: daily injection of 10 μg into mice for 10 days

B1: FLT3-ligand: cytokine factor promoting growth of hematopoietic progenitors; increases dendritic cell numbers (protein, UniProt P49771 27-235, looked up)
Fms-related tyrosine kinase 3 …: TQDCSFQHSPISSDFAVKIRELSDYLLQDYPVTVASNLQDEELCGGLWRLVLAQRWMERLKTVAGSKMQGLLERVNTEIHFVTKCAFQPPPSCLRFVQTNISRLLQETSEQLVALKPWITRQNFSRCLELQCQPDSSTLPPPWSPRPLEATAPTAPQPPLLLLLLLPVGLLLLAAAWCLHWQRTRRRTPRPGEQVPPVPSPQDLLLVEH
increase in DC numbers ([1]; blood): ~6 fold
increase in DC numbers ([1]; peripheral lymph nodes): ~4 fold
increase in DC numbers ([1]; spleen): approximately 17 fold
numbers of DC [2]: dramatically increase
